We go through two molecules from PMC3765318, “An efficient protocol for the purification and labeling of entire yeast septin rods from E.coli for quantitative in vitro experimentation” (BMC Biotechnology, 2013).

Series [1] deals with the molecule itself. Kind of series: co-sedimentation + other: fluorescence microscopy; 2 uM SNAP tagged rods labeled with BG-TMR, dialyzed into low salt buffer (50 mM NaCl, 50-200 mM Tris-HCl pH 8.0), 16 h at 4 C, pelleted at 100,000 g, on poly-L-lysine slides.
The target in series [2] is T1, SNAP tagged septin rod labeled with BG-biotin (S. cerevisiae, UniProt P32458 1-415; P32468 1-407; P32457 1-520; P25342 1-322, biotin, covalently attached with BG-Biotin to the SNAP tag).
T1 construct: Cdc11, S. cerevisiae septin; ORF amplified by PCR from genomic DNA; Cdc12, S. cerevisiae septin; Cdc3, S. cerevisiae septin; Cdc10, S. cerevisiae septin; calculated molecular weight 432.5 kDa; also called septin rods; biotinylated septin rods; source: E. coli BL21(DE3), four subunits co-expressed, purified (IMAC, Resource Q anion exchange), labeled with BG-Biotin; not shown: S tag, N-terminal, …
The experiment in a line: SPR; Biacore X100; biotinylated SNAP tagged septin rods captured (about 100 RU) on an anti-biotin antibody coated CM5 chip; Bni5 0-1600 nM as analyte in MSP buffer (10 mM MES, 150 mM NaCl, 0.05% Tween 20, pH 7.4); KD from the analyte response plotted against concentration. To be noted: both partners purified.

Series [3] concerns the target T1, SNAP tagged septin rod labeled with …. Kind of series: SPR; same dataset as a8; sensograms fitted with a two state reaction model (to compensate for background binding of Bni5 to the antibody-coated surface); contact 120 or 180 s, dissociation 600 s. To be noted: both partners purified. (In general: Surface plasmon resonance follows binding to a sensor surface in real time, without labels.)

B1: SNAP tagged septin rod labeled with BG-TMR (complex, S. cerevisiae)
chain 1: MSGIIDASSALRKRKHLKRGITFTVMIVGQSGSGRSTFINTLCGQQVVDTSTTILLPTDTSTEIDLQLREETVELEDDEGVKIQLNIIDTPGFGDSLDNSPSFEIISDYIRHQYDEILLEESRVRRNPRFKDGRVHCCLYLINPTGHGLKEIDVEFIRQLGSLVNIIPVISKSDSLTRDELKLNKKLIMEDIDRWNLPIYNFPFDEDEISDEDYETNMYLRTLLPFAIIGSNEVYEMGGDVGTIRGRKYPWGILDVEDSSISDFVILRNALLISHLHDLKNYTHEILYERYRTEALSGESVAAESIRPNLTKLNGSSSSSTTTRRNTNPFKQSNNINNDVLNPASDMHGQSTGENNETYMTREEQIRLEEERLKAFEERVQQELLLKRQELLQREKELREIEARLEKEAKIKQEE
chain 2: MSAATATAAPVPPPVGISNLPNQRYKIVNEEGGTFTVMLCGESGLGKTTFINTLFQTVLKRADGQQHRQEPIRKTVEIDITRALLEEKHFELRVNVIDTPGFGDNVNNNKAWQPLVDFIDDQHDSYMRQEQQPYRTKKFDLRVHAVLYFIRPTGHGLKPIDIETMKRLSTRANLIPVIAKADTLTAQELQQFKSRIRQVIEAQEIRIFTPPLDADSKEDAKSGSNPDSAAVEHARQLIEAMPFAIVGSEKKFDNGQGTQVVARKYPWGLVEIENDSHCDFRKLRALLLRTYLLDLISTTQEMHYETYRRLRLEGHENTGEGNEDFTLPAIAPARKLSHNPRYKEEENALKKYFTDQVKAEEQRFRQWEQNIVNERIRLNGDLEEIQGKVKKLEEQVKSLQVKKSHLK
chain 3: MSLKEEQVSIKQDPEQEERQHDQFNDVQIKQESQDHDGVDSQYTNGTQNDDSERFEAAESDVKVEPGLGMGITSSQSEKGQVLPDQPEIKFIRRQINGYVGFANLPKQWHRRSIKNGFSFNLLCVGPDGIGKTTLMKTLFNNDDIEANLVKDYEEELANDQEEEEGQGEGHENQSQEQRHKVKIKSYESVIEENGVKLNLNVIDTEGFGDFLNNDQKSWDPIIKEIDSRFDQYLDAENKINRHSINDKRIHACLYFIEPTGHYLKPLDLKFMQSVYEKCNLIPVIAKSDILTDEEILSFKKTIMNQLIQSNIELFKPPIYSNDDAENSHLSERLFSSLPYAVIGSNDIVENYSGNQVRGRSYPWGVIEVDNDNHSDFNLLKNLLIKQFMEELKERTSKILYENYRSSKLAKLGIKQDNSVFKEFDPISKQQEEKTLHEAKLAKLEIEMKTVFQQKVSEKEKKLQKSETELFARHKEMKEKLTKQLKALEDKKKQLELSINSASPNVNHSPVPTKKKGFLR
chain 4: MDPLSSVQPASYVGFDTITNQIEHRLLKKGFQFNIMVVGQSGLGKSTLINTLFASHLIDSATGDDISALPVTKTTEMKISTHTLVEDRVRLNINVIDTPGFGDFIDNSKAWEPIVKYIKEQHSQYLRKELTAQRERFITDTRVHAILYFLQPNGKELSRLDVEALKRLTEIANVIPVIGKSDTLTLDERTEFRELIQNEFEKYNFKIYPYDSEELTDEELELNRSVRSIIPFAVVGSENEIEINGETFRGRKTRWSAINVEDINQCDFVYLREFLIRTHLQDLIETTSYIHYEGFRARQLIALKENANSRSSAHMSSNAIQR
modifications: tetramethylrhodamine (TMR), covalently attached with BG-TMR to the SNAP tag
notes: Cdc11, S. cerevisiae septin; ORF amplified by PCR from genomic DNA; Cdc12, S. cerevisiae septin; Cdc3, S. cerevisiae septin; Cdc10, S. cerevisiae septin; also called SNAP tagged, TMR labeled septin filaments; TMR labeled septin filaments; source: E. coli BL21(DE3), four subunits co-expressed, purified (IMAC, Resource Q anion exchange), labeled with BG-TMR; copies: 2 + 2 + 2 + 2
B1: the binding result in series [1] was “binds”.

B2: Bni5 (natural protein, S. cerevisiae, UniProt P53890 1-448, looked up)
chain: MGLDQDKIKKRLSQIEIDINQMNQMIDENLQLVEPAEDEAVEDNVKDTGVVDAVKVAETALFSGNDGADSNPGDSAQVEEHKTAQVHIPTENEANKSTDDPSQLSVTQPFIAKEQITHTAIAIGDSYNSFVANSAGNEKAKDSCTENKEDGTVNIDQNRGEADVEIIENNDDEWEDEKSDVEEGRVDKGTEENSEIESFKSPMPQNNTLGGENKLDAELVLDKFSSANKDLDIQPQTIVVGGDNEYNHESSRLADQTPHDDNSENCPNRSGGSTPLDSQTKIFIPKKNSKEDGTNINHFNSDGDGQKKMANFETRRPTNPFRVISVSSNSNSRNGSRKSSLNKYDSPVSSPITSASELGSIAKLEKRHDYLSMKCIKLQKEIDYLNKMNAQGSLSMEDGKRLHRAVVKLQEYLDKKTKEKYEVGVLLSRHLRKQIDRGENGQFWIGTK
notes: Bni5, S. cerevisiae; BNI5 PCR amplified from genomic DNA, cloned in a pET15b derived expression plasmid; primers are in Additional file 1; also called purified Bni5 (analyte protein); 6his tagged Bni5; source: E. coli BL21(DE3), purified (IMAC, size exclusion chromatography)
In series [2], B2 gave a Kd of 313 nM. In series [3], this molecule registered a Kd of 253 nM, a dissociation rate constant (koff) of 0.037 s⁻¹ and a kon of 51000 M⁻¹ s⁻¹.

As usually defined, the Kd is a measure of binding affinity in units of concentration. High values mean lower affinity, low ones higher affinity. The koff is the rate constant with which the complex falls apart. The low end stands for a long-lived complex, the high end for a short-lived complex. As a reminder, the kon is the rate constant with which the complex forms.
